The values that follow are results of earlier work, collected in PMC5264612.

Series [1] has as its target MftC (UniProt P9WJ78).
The target of series [2] is MftA (UniProt P9WJ80).
Chain of UniProt P9WJ80 (P9WJ80 whole entry): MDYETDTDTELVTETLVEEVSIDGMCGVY

Chain of UniProt P9WJ78 (P9WJ78 whole entry): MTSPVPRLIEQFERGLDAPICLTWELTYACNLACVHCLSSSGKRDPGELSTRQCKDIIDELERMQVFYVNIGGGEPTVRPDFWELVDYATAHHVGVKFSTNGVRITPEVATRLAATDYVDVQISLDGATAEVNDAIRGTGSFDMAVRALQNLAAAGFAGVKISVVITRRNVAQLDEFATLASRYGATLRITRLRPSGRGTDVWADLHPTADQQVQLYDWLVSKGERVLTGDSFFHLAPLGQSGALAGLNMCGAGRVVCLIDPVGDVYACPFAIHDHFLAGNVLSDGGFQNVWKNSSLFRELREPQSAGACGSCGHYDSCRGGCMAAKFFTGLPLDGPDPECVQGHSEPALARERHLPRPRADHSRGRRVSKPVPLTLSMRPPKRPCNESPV

As a reminder, the Kd is a measure of binding affinity in units of concentration. Turning to MftB (from UniProt A0PM48), the Kd in series [1] was 2 µM; in series [2], 0.12 µM.
